Results as given in the DeepSol protein solubility set.

experiment: soluble on expression in E. coli; label from the status in PepcDB or PDB records

Row | Sequence | soluble on expression in E. coli
1 | MSLSYRIDVLLFNKFETLDVFGPVEIFGNLQDDFELNFISSDGGLVESSQKVRVETSLYTRDENIEKILFVPGGSGTREKVNDDNFINFIGNMVKESKYIISVCTGSALLSKAGILNGKRATTNKRSFKWVTEQNEDVLWVKEARWVKDGNIYTSSGVSAGIDMTLGFIEDLIGKEKALEISRSIEYFWNEDSNYDPFSKIYGEGHHHHHH | soluble
2 | MSLTALQQMTVLFVDDEEIAREQMKMVLSSFCKNTICVGSADQALAALQEHHPDIVLTDIRMPGLSGIELLNAVKQKDASVAVVIVSAHSESEYLLDAFRYKADGYLLKPFNFHEMLELLSDIATQKEAASSERKQGPDNRDFLLKILDTLGGRRAEIMEYVINHLDADNLFHGTYDEVAEALSASKPTVVATFQIMLEKNVLTRLKYGTYRMNVDATEGHHHHHH | soluble
3 | MSLTDNSKIRVVVGMSGGVDSSVTALLLKEQGYDVIGVFMKNWDDTDEFGVCTATEDYKDVAAVADKIGIPYYSVNFEKEYWDRVFEYFLAEYRAGRTPNPDVMCNKEIKFKAFLDYAMTLGADYVATGHYAQVKRDENGTVHMLRGADNGKDQTYFLSQLSQEQLQKTLFPLGHLQKSEVREIAERAGLATAKKKDSTGICFIGEKNFKQFLSQYLPAQKGRMMTIDGRDMGEHAGLMYYTIGQRGGLGIGGQHGGDNQPWFVVGKDLSQNILYVGQGFYHEALMSNSLDASVIHFTREMPEEFTFECTAKFRYRQPDSHVAVHVRGDKAEVVFAEPQRAITPGQAVVFYDGKECLGGGMIDMAYKNGQPCQYIEGHHHHHH | soluble
4 | MSLTDRLRATYRVKATAASIEARAKGIAVEQSVEMPLSAIDDPAVLDGIVGVVEEITERGEDCFEVRLALSTATIGGDAGQLFNMLFGNTSLQDDTVLLDIDLPDDLLASFGGPNIGAAGLRARVGASADRALTCSALKPQGLPPDRLADLARRMALGGLDFIKDDHGMADQAYAPFASRVGAVAAAVDEVNRQTGGQTRYLPSLSGHLDQLRSQVRTGLDHGIDTFLIAPMIVGPSTFHAVVREFPGAAFFAHPTLAGPSRIAPPAHFGKLFRLLGADAVIFPNSGGRFGYSRDTCQAVAEAALGPWGGLHASLPVPAGGMSLARVPEMIATYGPDVIVLIGGNLLEARDRLTEETAAFVASVAGAASRGCGLAEGHHHHHH | soluble
5 | MSLTDVSRILKEARDQGRLTTLDYANLIFDDFMELHGDRHFSDDGAIVGGLAYLAGQPVTVIGIQKGKNLQDNLARNFGQPNPEGYRKALRLMKQAEKFGRPVVTFINTAGAYPGVGAEERGQGEAIAKNLMEMSDLKVPIIAIIIGEGGSGGALALAVADQVWMLENTMYAVLSPEGFASILWKDGSRATEAAELMKITAGELYKMGIVDRIIPEHGYFSSEIVDIIKANLIEQITSLQAKPLDQLLDERYQRFRKYEGHHHHHH | not soluble
6 | MSLTEPDSKPKKGRAGRKKAEPVRPPEQFLELAELLDYVGQVIARGVPGGVWVRAEIASLTDRRHLYLDLVQAGEGGAGGVGEVAKCRATVWARERFALEAKFRGATSGATLSAGLKVLLFGTAEFHPQYGFSFNVLDISPEYTLGDAALRLEAMRAELVAEGSYGLNRLLPVPTDFARVAVIAPREAAGLGDFRREADPLEAAGLVEFHYLEATFQGREAGASLLRAVAAARELHQEKALDALFVIRGGGAVTDLAWLNDLELARALATFPAPVVTGLGHARDDTLPDEVACLRTDTPSKAAAYLVRTVVNAAAQAQEAARTIRAEAARVLVEAEAAAAWARDRALSSAVRRVDAAAAEVDALMRQALGLTPQRTLARGYALVRDAAGQPVTRAAGARAGEPLTLEWSDGSVEGHHHHHH | soluble
7 | MSLTERLSPVEIMGALVAFPTVSRDTNLPLVDWVETYLAGHGITAHRWVDPEQPHKAALFAHVGPWEEGAVVLSGHTDVVPIDGQPWDSDPFTVVERDGKYFGRGTCDMKGFDALAIWALVEGRYRDLKRPLQLALSFDEEVGCTGAPPMIVEMQNHLPKGSAVIVGEPSMMQAVTGHKGGFGYDTRVLGFEVHSSIMHTGVNAIMAAAPLIDWANHRNAENRAATPSALAAMFDPPWTTCHVGMISGGTAHNITAKECRFAMDFRIVPGEAKERWRDAYFAVAREVEAQMQAVHPEARIDLSEQFHVPPLVPEQEGEAEMLVRALTGDNAGHVVSYGTEAGQFQEAGYSAVICGPGDIAQAHQPNEFITVAQFDAGHGFMARLLDRLSEGHHHHHH | soluble
8 | MSLTFDFFEGPAGSGKTFSMVAHARQLIESDALGEGQRMLALTFMNGARRRLTSNLNAEASFRRKFDCLTFDSFAQSLAKRRSAKLTDEMRQQAEELGQFHGPCFLACELLNDVEVRRWVARTYPLVLVDEAQDLDVHRQGIVLGLKECCTTVVAADSFQCLSDGQETADFIDRLLRAGTTHTLTQSHRTNKAGLLAAALAVRNGEDIRAVLNEEAIGKTNRVHWIGEGIELVEVPATARNSGLLAWNLAFQLRLGSDDVALLTPDSANTIIRNAIGTVASKQRPWPHNAFSVSWEGGDSSVADELAEAIGFPDTAPYDEVCALLEEHSAQPMVKTVIRRIRRLQRVTGQSEFEKAQLVSFISDAVRTNTRLGFKKSAKIKAMSIHGAKNREFDRVIVLWPQSATGSDEHKRRLLYNAMTRTKNHCTVIVLGTGRLNSAPFAEGHHHHHH | soluble
9 | MSLTGQAEAPFIRHGYFKFADGVIVSVAEGTPSPEEIDRVEVIDGKGKWVMPGMINTHGHLGMSLLRGHSDDLPLQSWLTEKMWPFEGKMDREAVHHARQLAMAEMIKSGTTTFLEMYHLYMDDLAEAVVEQGPRAVLMRSMIGLCSESEQREKLKEAVTFATTWNGDGNGRITTMMAPHAPYTCPPSFIEMIVDEADRIDLPLHTHMAETQREVEEHRKTYGVHPLVHFEQLGFLKDRHWLLAHCVHLGEEELDILEQHPSVHVSHNPMSNLKLGSGIANVQSMLERGINICLGTDSVASNNHLDLVEEMRIAALLQKGAVLDPTAIPAETAIAMATKNGAKALRLPQVGTIEAGKRADFIMIDPQCLHLQPHEHVMSHLVYALKGADVQDVFVEGAPLMLNKELKTFDEEKLQFEANAHYQRICEKLKEGHHHHHH | not soluble
10 | MSLTIIHPLLASRSAPNYRQSWRLAGVWRRAINLMTESGELLTLHRQGSGFGPGGWVLRRAQFDALCGGLCGNERPQVVAQGIRLGRFTVKQPQRYYLLRITPPAHPQALAVAWMQRAEETGLFGPLALAASDPLPAELRQFRHCFQAALNGVKTDWRHWLGKGPGLTPSHDDTLSGMLLAAWYYGALDARSGRPFFACSDNLQLVTTAVSVSYLRYAAQGYFASPLLHFVHALSCPKRTAAAIDSLLALGHTSGADTLLGFWLGQQLLQGKEGHHHHHH | soluble
11 | MSLTIVAPMDEILERAHVVALPMRVKFRGIMVREAVLFDGPKGWGEFSPFVEYGVQEAAQWLRCGLEMAFQGPPPMIRDAVEVNATIPAVSPDQVPEILARYPGCTTVKVKVAEGDDAARVAMVREVLPDARIRVDANRGWTVDQAVAASKHLGELEYMEQPCASVAELAELRRRISVPIAADESIRRVSDPYEVARLHAADVAVVKAAPLGGPRNIVDIAKFYQQRGLSLTVASALDTGVGMNAGIAVAAAIDSNPAGLATQRLFVEDVTEPRTIVDGKMSVEMLAPDPARLAEFEVTGPRRDWWLDRVRGALECLHDFIPEGHHHHHH | soluble
12 | MSLTIYHPAELPQRQAEKSPNKTIIKYYDRESKQWRNISWSKFAAGVMNAAKALAEIGLESGERIGIYSPNMVHCLYTELGAFAMRGVVVPLYATSSPEQLRFIVEDSSMETLFVGEQFQYNNAYRVQKEYGTLKRIVVFDERVVLNPEDKTSKYFSEFVRLGDSMPNETKVKVSSREAIPSDPALIIYTSGTSGRSKGVLLLHSNLMYQMKVHSEHIPVYGPGELSIAFLPMSHIFEKAWTLFCLTTGTRIAILRDPKKVLEALPQIRPSLMCNVPRFWEKVYQGVNEKMASSPRILKGVYRRAMAVGQRYRLDYWNEGKRAPLLLSMQYAFYNCTIFTLLKRVLGLQRGRYFPTAGAPLSDEINIFLQSVNIPIIVGYGLSETTATVSFYPQRGFKIGSMGKVMPGLDARIDPDNNEILVKGESVMSEYYNLPEETAGAFTPDGYFRTGDAGRMDPDGTLYFLERIKDLYKTANGKYIAPQMIEGMLTKDPIIEQIAVIGDRFKYVSALVYPNWELVRQAAIKRGLEQAREGHHHHHH | not soluble
13 | MSLTKKELPLDGLIPYCEQCGDFRFPVFSVAVSMIVMNEGGDQVLLIKQYWKDSYILVAGYVNKGENAEDSCRRELMEELHLTAKSLHFNRSQYFAPSNTLMLNYTVTVDQAEKVSPNEEIDAWNWLSIDEARRQIRPNSLARTFLLEYLNKCKLHREGHHHHHH | soluble
14 | MSLTKLIVICGATATGKSGLALNLAMRLGSVILSADSRQVYREFDIGTAKPTLAEQRAVPHYLIDICAPRETMTVADYQEQAQALINSLPVSPLLLVGGTGLYIRSIVQGMKIPRVAPNYELRSQLASLGQTTLYGILQQVDPIAAQKIHPNDPVRTLRAVEVFYITGIPISAQQGENPPDYPILQIGLDCEMERLTERIHKRTEQMITDGLVGEVEYLCQKYGAELPLLNTLGYQEIKQYLTGEISLEAAKELTVLHTRQFAKRQRTWFRASPQIEWFNADHPDLLDIVCQHIQQPEGHHHHHH | soluble
15 | MSLTKMRESEIIRMFIEEFDNHALGDDAGFVRFNDSWLLVTSDMLVWRTDVPDFMTPEEAGKKVVTMNVSDIAAMGGLPLAFFFSLGVPENTDEKTLRGIAKGINKGAKEYGVKIVSGDTNEAREIIIDGGAIGRGSRLLLRSNAKPGDLVCVTGELGRPLTALLLWLKGEEIPPKILEKAKNPKAREREGIELSNYANSAIDISDGLSKELWEIARSSNVRIVIDEDKIPVNEEVREIVKDPIKIALASGEEFELVFTIPKENLGNISFDFTIIGRVEEGEGVYIKREDKMERLPILGWEHLKGGDYVNLEGHHHHHH | soluble
16 | MSLTLFHAPRSRSTRIVTLLRELDAIDKVAIKIVDITRGDGSGRKDPKNLHPEGKVPLLDHDGVVIWESIAIIQYLTDLFPEKKMAPVAGDPQRGRYLSWLAWYAGVVEPVLIMQAAGISHPFVDFTFRSPAELAARLETALKDCPYLMGERYTAVDLLLHSPFAWCPAATPESDVVKAWIERCGERPSLQWTANYDACTVVAEGHHHHHH | soluble
17 | MSLTNFVGSVLEATKEAIRALNPQNSTIYESLMVGAGGDVSLKADLMCEEILSARLRHFGHIHSEESGLIEGESQDIIYLDPLDGSTNLSSLIPYYGTSVALCDPEGRTKAAAVINFCSGETFIKTDAFALHGSIWQPIDTFVPIRPLEHASKIGIFEGSHRNAPWVLGLHQKGLKFRSPGAIALSMAYAHNVSFVLFDGEIREYDTKAGLFLCSDLHIHHDERALLISRDPIIFENLLELISQKGEGHHHHHH | soluble
18 | MSLTNLDFHIVKRIRQRIAQGGDNAALKHKQNGQWQAINWHQFGEQLDELSMALLAQGIGVQDKIAIFSNNMPRWTIADFAALQIRAVTVPIYPTNTPEQAAYILQNADVKVVFVGEQAQFDAALSQFEQCPELRLIVAMNANIDLKQASCAMHWDEFVAQSHHQDRAPLDALIEQANYDDLFTLIYTSGTTGTPKGVMLDYRNIGAQLEGHDQRLNLTQEDVSLCFLPLSHVFERAWTAYVLYKGATNCYLQDVAHVREALAEVRPTVMCAVPRFYEKIFSAIHEKVVKAPLVRKVLFTWAVNMGAKMAVCRQQQRQPSWMLKQSHQFADKLVLSKLRALLGGRINFMPCGGAKLDETIGRFFHAIGINVKLGYGMTETTATVSCWDDHCFNPDSIGLSMPGAQVKIGENNEILVRGPMVMRGYYKLDKETTESFDEQGFLKTGDAGHIDENGNLFITDRIKELMKTSGGKYIAPQVIEGAIGKDHFIEQIAVIADTRKFVSALIVPCFDSLEEYAKELNIKYHDRLELIKHSQVLEMFEKRVNELQKELAKFEQVKKFRLLPKAFSMDSGELTPTQKLRREGHHHHHH | soluble
